The assay addresses T1, human CD81 mutant V169A (human, UniProt P60033 1-236, limits assumed).
T1 construct: as m30; not shown: C-terminal V5 and 6xHis tags
T1 sequence: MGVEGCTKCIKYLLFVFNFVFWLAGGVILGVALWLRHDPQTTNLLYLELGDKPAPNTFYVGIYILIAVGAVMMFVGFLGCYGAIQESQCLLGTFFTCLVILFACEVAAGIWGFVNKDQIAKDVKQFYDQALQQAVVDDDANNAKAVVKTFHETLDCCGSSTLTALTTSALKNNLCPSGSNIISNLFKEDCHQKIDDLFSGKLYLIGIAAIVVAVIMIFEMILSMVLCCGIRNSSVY
Description: ELISA. In short, it runs like this: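 Relative binding affinity was taken as the percentage of binding to unmodified CD81, corrected for V5-tag expression. The altered CD81 proteins, tagged with V5 and 6×His, were expressed in CHO cells for 48 hours, and 1% n-octylglucoside membrane extracts were loaded onto Ni-NTA His Sorb plates at 5 μg/100 μL/well (3 hours, 4° C). After 1 hour of antibody binding at room temperature, detection used HRP anti-human IgG4 with TMB at 450 nm.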

B1: 002-A07 IgG4 antibody (antibody)
heavy: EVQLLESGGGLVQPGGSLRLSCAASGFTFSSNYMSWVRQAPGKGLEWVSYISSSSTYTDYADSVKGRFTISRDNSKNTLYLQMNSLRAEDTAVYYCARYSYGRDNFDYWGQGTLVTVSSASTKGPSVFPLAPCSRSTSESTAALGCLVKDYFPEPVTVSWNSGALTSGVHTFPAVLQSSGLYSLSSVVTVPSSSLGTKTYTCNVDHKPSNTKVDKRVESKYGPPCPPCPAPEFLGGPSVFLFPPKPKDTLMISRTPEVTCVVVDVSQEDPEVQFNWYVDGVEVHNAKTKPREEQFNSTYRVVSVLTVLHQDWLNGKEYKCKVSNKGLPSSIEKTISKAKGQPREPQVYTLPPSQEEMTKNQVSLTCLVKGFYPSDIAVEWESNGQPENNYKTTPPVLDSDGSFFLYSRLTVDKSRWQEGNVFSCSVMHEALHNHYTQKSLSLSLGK
light: QSVLTQPPSASGTPGQRVTISCTGSTSNIGAGYDTHWYQQLPGTAPKLLIYGNSNRPSGVPDRFSGSKSGTSASLAISGLRSEDEADYYCQSYDTNLSVWVFGGGTKLTVLGQPKAAPSVTLFPPSSEELQANKATLVCLISDFYPGAVTVAWKADSSPVKAGVETTTPSKQSNNKYAASSYLSLTPEQWKSHRSYSCQVTHEGSTVEKTVAPTECS
notes: human IgG4 S228P, lambda light chain
B1 had a relative binding affinity of less than 20%.
